According to patent publication US20050191301A1 (Janssen / Centocor, published 2005):
Ends that are not written are not given here.

T1: EPO receptor (on UT-7/EPO cells) (human, UniProt P19235 25-508)
T1 sequence (looked up): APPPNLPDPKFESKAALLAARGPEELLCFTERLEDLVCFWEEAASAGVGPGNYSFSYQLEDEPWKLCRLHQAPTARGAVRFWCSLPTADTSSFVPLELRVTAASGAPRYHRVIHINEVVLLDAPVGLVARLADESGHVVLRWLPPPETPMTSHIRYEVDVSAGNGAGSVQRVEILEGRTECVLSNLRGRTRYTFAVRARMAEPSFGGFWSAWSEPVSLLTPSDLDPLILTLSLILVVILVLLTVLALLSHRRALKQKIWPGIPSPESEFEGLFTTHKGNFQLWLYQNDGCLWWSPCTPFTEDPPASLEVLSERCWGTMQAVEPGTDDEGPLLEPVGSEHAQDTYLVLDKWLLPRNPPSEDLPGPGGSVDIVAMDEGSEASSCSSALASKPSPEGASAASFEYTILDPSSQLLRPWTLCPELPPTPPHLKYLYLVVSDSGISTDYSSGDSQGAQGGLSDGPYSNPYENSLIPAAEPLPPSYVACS


Experiments:
[1] = target: EPO receptor (on UT-7/EPO cells) (human) (UniProt P19235); experiment: cell-based or functional assay
[2] = target: T1, EPO receptor (on UT-7/EPO cells); experiment: cell-based or functional assay

EC50 in the UT7 in vitro bioactivity assay, relative to its historical average [1] | EC50 in the UT-7/EPO in vitro bioactivity assay, relative to its historical average [2] | Molecule
3 fold | – | recombinant human erythropoietin (rHuEPO) (from UniProt P01588 28-192) (ligand)
– | 2 fold | GGTYSCHFGPLTWVCKPQGG (ends and bridges not checked; cysteine pairing not given here) [EMP-1 (EPO mimetic peptide-1)]
